From publication PMC3276558, “The B-Cell Specific Transcription Factor, Oct-2, Promotes Epstein-Barr Virus Latency by Inhibiting the Viral Immediate-Early Protein, BZLF1”

Molecular target: Oct-2 Q221A (UniProt P09086 1-479, Q221A)
Assay: EMSA; EMSA with in vitro-translated protein and 32P-labelled annealed ds oligonucleotide; buffer, salt, pH and temperature not given in the material
Conditions: protein: ivt; label: 32P (T4 PNK, 5' end); blunt

Chain of Oct-2 Q221A (P09086 whole entry Q221A): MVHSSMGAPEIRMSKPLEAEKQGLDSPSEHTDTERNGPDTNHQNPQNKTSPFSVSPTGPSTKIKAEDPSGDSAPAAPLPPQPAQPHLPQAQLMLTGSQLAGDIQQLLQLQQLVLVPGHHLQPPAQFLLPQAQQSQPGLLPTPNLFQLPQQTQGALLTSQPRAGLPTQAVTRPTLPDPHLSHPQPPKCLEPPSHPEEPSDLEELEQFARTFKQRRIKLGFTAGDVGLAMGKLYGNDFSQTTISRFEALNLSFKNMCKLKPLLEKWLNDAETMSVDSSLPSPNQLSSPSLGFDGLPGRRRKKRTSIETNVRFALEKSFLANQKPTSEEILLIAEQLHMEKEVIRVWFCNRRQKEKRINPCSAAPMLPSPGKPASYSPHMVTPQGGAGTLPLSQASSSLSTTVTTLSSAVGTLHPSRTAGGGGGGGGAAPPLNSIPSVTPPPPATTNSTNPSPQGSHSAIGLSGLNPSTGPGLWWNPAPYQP

B1: Oct probe (dsDNA)
DNA 1: CAGTGATGCAAATCTTGT
DNA 2: ACAAGATTTGCATCACTG
**Q.** Does B1 bind?
**A.** no binding
